In the supplement of paper PMC10219994:
± gives the standard deviation of the averaged measurements.

B1: library; a variant is named by its letters at N, in order (parent)
chain: GAGACCGCAACTGAAAAGTTGTGGNNNNNATAGTGAGTCGCTGCCTGCAAAGACACAACT

Variants of: B1
Experiment: ligation selection enrichment (abundance after / before one-round selection) (fold); higher = more template-directed ligation activity
Details: with T7Psub CACGGAUGCUAAUACGACUCACUAUA; MgCl2 25 mM; 42 °C; 4 h; pH 8.5
Description: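 Lib-N5 ligase ribozyme library: five randomized core nucleotides (including the GGA motif of N8-1) within the fixed N8-1 ribozyme flanks, transcribed by T7 RNA polymerase with a 5'-triphosphate. The library (0.75 uM) was reacted with substrate T7Psub (6 uM) in 50 mM EPPS pH 8.5 with 25 mM MgCl2 at 42 C for 4 h. Ligated products were PAGE-purified, reverse transcribed and MiSeq sequenced; enrichment = abundance after selection / abundance before selection, with two independent replicates. The full transcript is built from the printed template flanks.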

Row | Variant | ligation selection enrichment
1 | CCAGA | 0.297 ± 0.02
2 | GCCAA | 0.222 ± 0.045
3 | GCCAC | 0.176 ± 0.031
4 | GCCAG | 0.28 ± 0.021
5 | TATGA | 2.32 ± 0.16
6 | TATGC | 0.29 ± 0.026
7 | TATGT | 0.135 ± 0.031
8 | TATGG | 0.616 ± 0.093
9 | GATAC | 0.188 ± 0.058
10 | GATAT | 0.446 ± 0.11
11 | GATAA | 0.189 ± 0.036
12 | GATAG | 0.538 ± 0.016
13 | TCCAC | 0.118 ± 0.043
14 | TCCAA | 0.0717 ± 0.015
15 | TCCAG | 0.128 ± 0.027
16 | CAGGT | 0.108 ± 0.023
17 | CAGGC | 0.244 ± 0.12
18 | CAGGG | 0.186 ± 0.021
19 | CAGGA | 0.231 ± 0.013
20 | CATCT | 0.541 ± 0.19
21 | CATCC | 0.247 ± 0.012
22 | CATCA | 0.288 ± 0.025
23 | CATCG | 1.33 ± 0.14
24 | CAGAA | 0.343 ± 0.0039

Row | Variant | ligation selection enrichment
25 | CAGAG | 0.399 ± 0.09
26 | CAGAT | 9.36 ± 2
27 | CAGAC | 0.374 ± 0.044
28 | AAGTC | 0.146 ± 0.018
29 | AAGTT | 0.257 ± 0.055
30 | AAGTA | 0.24 ± 0.059
31 | AAGTG | 0.294 ± 0.021
32 | TACGT | 0.169 ± 0.044
33 | TACGC | 0.1908 ± 0.0012
34 | TACGA | 1.32 ± 0.13
35 | TACGG | 0.379 ± 0.026
36 | TAGAT | 15.6 ± 3.6
37 | TAGAG | 0.755 ± 0.058
38 | TAGAA | 0.484 ± 0.075
39 | TAGAC | 1.03 ± 0.29
40 | GACAG | 0.419 ± 0.07
41 | GACAT | 0.499 ± 0.025
42 | GACAC | 0.176 ± 0.0093
43 | GACAA | 0.256 ± 0.04
44 | TAAGA | 0.977 ± 0.16
45 | TAAGT | 0.0779 ± 0.028
46 | TAAGC | 0.165 ± 0.016
47 | TAAGG | 0.733 ± 0.15
48 | CCAAC | 0.217 ± 0.026

Row | Variant | ligation selection enrichment
49 | CCAAT | 3.42 ± 0.96
50 | CCAAG | 0.349 ± 0.024
51 | CCAAA | 0.162 ± 0.034
52 | TAATA | 0.189 ± 0.0088
53 | TAATG | 1.16 ± 0.27
54 | TAATT | 0.211 ± 0.098
55 | TAATC | 0.111 ± 0.048
56 | TCATT | 0.327 ± 0.04
57 | TCATG | 0.1699 ± 0.0013
58 | TCATC | 0.166 ± 0.002
59 | TCATA | 0.274 ± 0.026
60 | AATTT | 0.624 ± 0.11
61 | AATTC | 0.201 ± 0.075
62 | AATTA | 0.421 ± 0.03
63 | AATTG | 1.46 ± 0.055
64 | GAACA | 0.191 ± 0.024
65 | GAACG | 0.626 ± 0.017
66 | GAACT | 0.882 ± 0.31
67 | GAACC | 0.225 ± 0.032
68 | TCAAG | 0.718 ± 0.12
69 | TCAAC | 0.48 ± 0.05
70 | TCAAA | 0.317 ± 0.039
71 | TCAAT | 6.44 ± 2.6
72 | TATAT | 0.817 ± 0.18

Row | Variant | ligation selection enrichment
73 | TATAC | 0.22 ± 0.0018
74 | TATAA | 0.182 ± 0.077
75 | TATAG | 0.995 ± 0.016
76 | ACCAA | 0.144 ± 0.0063
77 | ACCAC | 0.165 ± 0.0072
78 | ACCAT | 0.866 ± 0.31
79 | ACCAG | 0.207 ± 0.033
80 | AAGAT | 16.6 ± 5
81 | AAGAG | 0.632 ± 0.085
82 | AAGAA | 0.428 ± 0.044
83 | AAGAC | 0.661 ± 0.019
84 | AAATA | 0.18 ± 0.034
85 | AAATT | 0.446 ± 0.12
86 | AAATC | 0.171 ± 0.01
87 | AAATG | 0.495 ± 0.067
88 | TAAAC | 0.176 ± 0.054
89 | TAAAA | 0.145 ± 0.025
90 | TAAAG | 0.553 ± 0.13
91 | TAAAT | 0.784 ± 0.063
92 | GACGG | 0.409 ± 0.066
93 | GACGT | 0.154 ± 0.063
94 | GACGA | 1.29 ± 0.2
95 | GACGC | 0.264 ± 0.024
96 | TATCA | 0.404 ± 0.031

Row | Variant | ligation selection enrichment
97 | TATCT | 0.379 ± 0.13
98 | TATCG | 0.999 ± 0.23
99 | TATCC | 0.323 ± 0.051
100 | GAGCT | 0.597 ± 0.27
101 | GAGCA | 0.241 ± 0.082
102 | GAGCC | 0.172 ± 0.0044
103 | GAGCG | 0.68 ± 0.023
104 | TATTG | 2.17 ± 0.33
105 | TATTA | 0.197 ± 0.042
106 | TATTT | 0.402 ± 0.22
107 | TATTC | 0.186 ± 0.0052
108 | TAACC | 0.173 ± 0.011
109 | TAACG | 0.8672 ± 0.0053
110 | TAACT | 0.925 ± 0.31
111 | TAACA | 0.186 ± 0.043
112 | CACCA | 0.112 ± 0.018
113 | CACCT | 0.334 ± 0.14
114 | CACCG | 0.217 ± 0.047
115 | CACCC | 0.15 ± 0.0098
116 | GATCG | 0.78 ± 0.097
117 | GATCT | 0.306 ± 0.085
118 | GATCA | 0.464 ± 0.032
119 | GATCC | 0.276 ± 0.057
120 | CACAG | 0.134 ± 0.035

Row | Variant | ligation selection enrichment
121 | CACAT | 1.16 ± 0.21
122 | CACAA | 0.132 ± 0.055
123 | CACAC | 0.168 ± 0.031
124 | AAAGA | 0.256 ± 0.0097
125 | AAAGC | 0.199 ± 0.038
126 | AAAGG | 0.44 ± 0.026
127 | AAAGT | 0.147 ± 0.088
128 | CAATT | 0.343 ± 0.11
129 | CAATA | 0.143 ± 0.036
130 | CAATG | 0.249 ± 0.03
131 | CAATC | 0.136 ± 0.047
132 | CAACT | 0.615 ± 0.11
133 | CAACC | 0.126 ± 0.0056
134 | CAACG | 0.449 ± 0.066
135 | CAACA | 0.1345 ± 0.00036
136 | TCACA | 0.115 ± 0.057
137 | TCACG | 0.341 ± 0.018
138 | TCACC | 0.159 ± 0.0071
139 | TCACT | 0.427 ± 0.28
140 | AATCA | 0.454 ± 0.023
141 | AATCC | 0.358 ± 0.014
142 | AATCT | 0.451 ± 0.12
143 | AATCG | 0.816 ± 0.11
144 | GCAGG | 0.189 ± 0.024

Row | Variant | ligation selection enrichment
145 | GCAGC | 0.14 ± 0.021
146 | GCAGT | 0.0918 ± 0.00069
147 | GCAGA | 0.363 ± 0.026
148 | ACACC | 0.132 ± 0.0051
149 | ACACT | 0.474 ± 0.18
150 | ACACG | 0.497 ± 0.035
151 | ACACA | 0.134 ± 0.024
152 | CAGCT | 0.542 ± 0.24
153 | CAGCA | 0.206 ± 0.024
154 | CAGCG | 0.535 ± 0.21
155 | CAGCC | 0.14 ± 0.0077
156 | CCATT | 0.223 ± 0.041
157 | CCATC | 0.121 ± 0.0018
158 | CCATA | 0.14 ± 0.025
159 | CCATG | 0.166 ± 0.043
160 | CAAGA | 0.182 ± 0.036
161 | CAAGT | 0.157 ± 0.079
162 | CAAGC | 0.137 ± 0.042
163 | CAAGG | 0.2 ± 0.024
164 | GACCC | 0.238 ± 0.057
165 | GACCT | 0.584 ± 0.26
166 | GACCG | 0.8601 ± 0.0032
167 | GACCA | 0.239 ± 0.067
